“And” between values parts separate entries of the source, which are not always exact repeats. Equal entries are not always repeated. Where two headings read alike, the source gives them in different places.
How the values were obtained:
COVID-19 (SARS-CoV-2) = details: cited from earlier work; for Mean Days to Discharge (**median): Lopinavir/Ritonavir cohort
[1] = system: severe and critical COVID-19 pneumonia (SARS-CoV-2); details: for deaths / mortality: data cutoff May 1, 2020; for ALT after lenzilumab / AST after lenzilumab: individual patients: peak (patient 4) or at discharge (patients 5, 8)
[2] = Four completed clinical trials of lenzilumab (healthy volunteers, asthma, rheumatoid arthritis, CMML); format: in vivo, human; details: 113 individuals in 4 completed trials
human GM-CSF = human GM-CSF (Homo sapiens, UniProt P04141); assay: Binding of lenzilumab to GM-CSF
Chain of human GM-CSF (P04141 18-144): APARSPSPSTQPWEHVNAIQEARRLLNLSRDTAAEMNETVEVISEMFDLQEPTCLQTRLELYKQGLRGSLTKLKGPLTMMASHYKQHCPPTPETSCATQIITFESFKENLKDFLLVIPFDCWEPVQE

[3] = system: COVID-19 associated chronic ARDS (SARS-CoV-2); format: in vivo, human; details: one patient
Protocol: Hospitalized subject with confirmed COVID-19 pneumonia and established risk factors for poor outcomes was treated in the ICU for 12 weeks using standard supportive care for chronic acute respiratory distress syndrome (ARDS). […] Patient characteristics, clinical and laboratory outcomes, and adverse events were recorded through duration of hospitalization.
Over the course of their ICU stay, the patient developed acute respiratory distress syndrome (ARDS).

[4] = system: severe COVID-19 pneumonia (SARS-CoV-2); details: for Incidence of IMV / Incidence of IMV and/or death / Incidence of death / Incidence of clinical improvement: n = 12
[5] = 12 patients (same cohort in Examples 8 and 10)
[6] = individual patient narratives, listed as lenzilumab
[7] = one patient, pretreatment vs 48 hours post-lenzilumab
[8] = patient 5 at discharge, unit not given

Tocilizumab: anti-IL6 receptor monoclonal antibody; IL-6 antagonist
Mean Days to Discharge (COVID-19 (SARS-CoV-2); Tocilizumab cohort): 13.5 days

lopinavir and ritonavir [Lopinavir/Ritonavir]
Mean Days to Discharge (**median) (COVID-19 (SARS-CoV-2)): 13** days | Mean Days to Discharge (**median) (COVID-19 (SARS-CoV-2); listed as Lopinavir-Ritonavir): 13 days

B1: Lenzilumab: Humaneered recombinant monoclonal antibody, derived from mouse antibody LMM102, targeting and neutralizing human GM-CSF (antibody, chains of the INN, looked up, V domains shown)
VH: QVQLVQSGAEVKKPGASVKVSCKASGYSFTNYYIHWVRQAPGQRLEWMGWINAGNGNTKYSQKFQGRVTITRDTSASTAYMELSSLRSEDTAVYYCVRRQRFPYYFDYWGQGTLVTVSS
VL: EIVLTQSPATLSVSPGERATLSCRASQSVGTNVAWYQQKPGQAPRVLIYSTSSRATGITDRFSGSGSGTDFTLTISRLEPEDFAVYYCQQFNKSPLTFGGGTKVEIK
hemoglobin on day 6 in one patient ([1]; 10.3 on day 0, renal biopsy day 2, subcapsular hematoma): 7.9 g/dL | median time to discharge post-lenzilumab ([1]; 11 discharged patients, range 3-19): 5 days | patients with clinical improvement of at least 2 points on the 8-point ordinal scale ([1]; 11 of 12 patients): 92% and 91.7% | hematological toxicity ([1]; 12 patients): not associated with any hematological toxicity | adverse events attributable to lenzilumab [1, 5]: no treatment-emergent adverse events attributable to lenzilumab | infusion reactions [1, 5]: no infusion reactions | median time to a 2-point clinical improvement ([1]; 95% CI 2-7 days): 5 days | time to resolution of fever in patients febrile at baseline ([1]; after lenzilumab administration): ≤ 48 h | Lymphocytes 1st Lab, summary of patients 1-5 ([1]; average of 5 patients): 1.044 | Lymphocytes Last Value, summary of patients 1-5 ([1]; average of 5 patients): 1.422 | Lymphocytes Low, summary of patients 1-5 ([1]; average of 5 patients): 0.912 | Neutrophils 1st Lab, unlabelled summary line of patients 1-5 ([1]; average of 5 patients): 3.892 | Neutrophils High, summary of patients 1-5 ([1]; average of 5 patients): 6.008 | Neutrophils Last Value, summary of patients 1-5 ([1]; average of 5 patients): 3.98 | mean IL-6 on day 3 ([1]; baseline 26.8 pg/mL, p=0.035): 16.1 pg/mL | mean CRP on day 3 ([1]; baseline 137.3 mg/L, p=0.040): 51.2 mg/L | mean absolute lymphocyte count day 3 ([1]; baseline 0.89, p=0.107): 1.14e+09 L⁻¹ | mean absolute neutrophil count day 3 ([1]; baseline 5.1, p=0.27): 4.8e+09 L⁻¹ | mean hemoglobin day 3 ([1]; baseline 12.9, p=0.89): 11.4 g/dL | mean temperature at day 3 ([1]; baseline 37.95, p=0.023): 36.97 | proportion of patients with SpO2/FiO2<315 at end of observation ([1]; baseline 67%, p=0.00015): 8% | mean platelet count day 3 ([1]; baseline 217.7, p=0.001): 2.618e+11 L⁻¹ | deaths / mortality [1]: no reported mortality | deaths / mortality ([1]; listed as lenzilumab): no deaths | patients discharged on home oxygen ([1]; five patients): 42% | ferritin after lenzilumab ([1]; individual patient narratives): 571 µg/L | CRP after lenzilumab ([1]; individual patient narratives, dates in text): 91 mg/L and 46 mg/L | D-dimer after lenzilumab [1, 6]: 1507 ng/mL and 1759 ng/mL and 1802 ng/mL | ferritin after lenzilumab [1, 6]: 1143 µg/L | IL-6 post Rx ([1]; individual patients, data to Apr. 13, 2020): 4.6 pg/mL | ALT after lenzilumab [1]: 175 | AST after lenzilumab [1]: 96 | ALT after lenzilumab ([1]; listed as lenzilumab): 169 and 137 | AST after lenzilumab ([1]; listed as lenzilumab): 203 and 118 | patients whose SpO2/FiO2 improved to >315 on day 1 ([1]; of 8 patients <315 at baseline): four | patients with 2-point improvement ([1]; of 12): 1 patients | patients with ≥3-point improvement ([1]; of 12): 10 patients | patients requiring invasive mechanical ventilation ([1]; one patient): 8.3% | cytokines of the cytokine storm (G-CSF, MDC, GM-CSF, IL-1α, IFN-γ, IL-7, FLT-3L, IL-1rα, IL-6, IL-12p70) [1, 7]: significant reduction | IL-6 after lenzilumab ([1]; patient 4, April 8): 95.4 pg/mL | LDH after lenzilumab ([1]; patient 4, April 8): 388 U/L | IL-6 after lenzilumab [1, 8]: 4.6 | ferritin after lenzilumab [1, 8]: 1223 | hemoglobin at last study observation, same patient ([1]; patient with subcapsular hematoma): 9.3 g/dL | patients requiring mechanical invasive ventilation ([1]; patients 1-5): None | time to clinical two-point improvement faster than comparators ([1]; vs Remdesivir, Lopinavir-Ritonavir (and Tocilizumab)): more than 50% | tolerability, frequency and severity of adverse events [2]: very well tolerated | binding affinity (human GM-CSF): picomolar range | lymphopenia post lenzilumab [3]: appeared to improve | infusion-related or systemic side effects ([3]; 600 mg IV every 8 hours, 3 doses): No infusion-related or systemic side effects | patients free of ARDS (SpO2/FiO2 of 315 or higher) by end of observation ([4]; 11 patients, P=0.43): 92% | mean SpO2/FiO2 over time post-treatment vs untreated ([4]; P<0.001): statistically significant difference | CRP reduction (mean) ([4]; after 4 days, control −0.95, P .01): 135.8 | IL-6 concentration on day 4 ([4]; baseline 28.6 pg/mL, P=0.02): 8.52 pg/mL | mean CRP after treatment ([4]; baseline 172.2 mg/L, 4 days post-treatment, P=0.04): 36.4 mg/L | mean absolute neutrophil count day 4 ([4]; baseline 5.1, P=0.27): 4.8e+09 L⁻¹ | mean hemoglobin day 4 ([4]; baseline 12.9, P=0.89): 11.4 g/dL | IL-6 reduction ([4]; baseline vs day 4): 20.1 | ALC increase ([4]; control 0.03, P .04): 0.46 × 10*9/L | Mean temperature reduction ([4]; control 0.459, P .02): 1.075 | PLT increase (mean platelet count from baseline) ([4]; control 63.2, P .61): 52.5 | Ventilator-free survival vs untreated group ([4]; log-rank x^2=3.67, P=0.06): favored | Incidence of IMV [4]: (8%) | Incidence of IMV and/or death [4]: (8%) | Incidence of death [4]: (8%) | Incidence of IMV and/or death ([4]; P .07): 1 patients | Incidence of IMV ([4]; P .10): 1 patients | Incidence of death ([4]; P .43): 1 patients | Incidence of clinical improvement ([4]; P .43 vs control): 11 patients | Incidence of clinical improvement ([4]; at least 2 points on 8-point scale): (92%) | Incidence of clinical improvement ([4]; at least 2 points on 8-point scale, listed as lenzilumab): 92% | Incidence of IMV and/or death ([4]; listed as lenzilumab): 8% | cytokines and chemokines involved in the cytokine storm [4, 7]: significant reduction | Days to resolution of fever ([4]; range 1-6, P .22): 2 days | Days to clinical improvement (median) ([4]; range 1-14, control 11, P .006): 5 days | Days to discharge from hospital (median) ([4]; range 3-19, control 11, P .008): 5 days | Increase in mean absolute lymphocyte counts ([4]; untreated 0.03, P=0.04): 4.6e+08 L⁻¹
